In patent US11224246B2, “Mineral fortification process and its uses” (SOCIETE DES PRODUITS NESTLE S.A., priority 2012, dated 2022):

Assays:
Format in all cases: physicochemical
[1] = Zinc sulphate addition to sodium caseinate solution, precipitation of proteins; conditions: 2% protein solution, pH 6.8
Procedure: We have compared the effect of zinc sulphate addition on the precipitation of proteins in sodium caseinate using our technology.
Upon addition of zinc sulphate to sodium caseinate solution (2% protein), not more than 5 mM of zinc could be added without gross precipitation of proteins at pH 6.8.
However, as exemplified with the concept of complex II, we could add 18 mM of zinc to the sodium caseinate (2% protein solution) without any precipitation of proteins.

[2] = Copper sulphate addition to sodium caseinate solution, precipitation; conditions: 2% protein
Procedure: The sodium caseinate solution (2% protein) precipitated upon addition of 1.5 mM copper as copper sulphate. Again using the concept of complex II, we could add 4 mM without noticeable precipitation at pH 6.8.

[3] = Effect of phosphorus addition on soluble protein, soluble iron, turbidity and appearance of sodium caseinate solution on iron addition; conditions: without the phosphorus, FIGS. 6 and 7
Procedure: FIGS. 3 to 5 illustrate the effect of adding phosphorus to the complex.
FIG. 5 illustrates the advantages of the invention, wherein an increase in turbidity indicates a reduction in stability due to the formation of small particulates/precipitates.
FIGS. 6 and 7 visually illustrate how addition of phosphorus improves the solubility and stability of the complex. Even when the iron is loaded up to 25 mM, the composition remains in solution. Without the phosphorus, the protein and/or iron precipitates even at lower levels of iron (5-10 mM).

Substance: sodium caseinate
- Zinc that could be added without precipitation of proteins [1]: not more than 5 mM
- Copper addition at which the solution precipitated [2]: 1.5 mM
- Iron level at which protein and/or iron precipitates [3]: 5 to 10 mM
